Data from patent US20250197855A1 (ALNYLAM PHARMACEUTICALS, published 2025).

How the values were obtained:
[1] = target: T1, Aβ in APPPS1-21 mouse brain (from the human APP transgene bearing the Swedish mutation) (human (transgene in mouse), UniProt P05067 672-713); assay: proximity ligation assay (PLA) on APPPS1-21 mouse brain sections
T1 construct: also called methoxy-X04+ Aβ plaque

[2] = target: T2, C1q (mouse, in APPPS1-21 and WT mouse brain cortex sections) (mouse, UniProt P98086 23-245; P14106 26-253; Q02105 30-246); assay: proximity ligation assay (Duolink PLA) on brain cortex sections of 16 weeks old APPPS1-21 mice
T2 construct: Endogenous tissue protein detected with mouse anti-C1q (HM1096BT, Hycult)
T2 sequence (P98086 23-245 limits assumed, chain 1 of 3): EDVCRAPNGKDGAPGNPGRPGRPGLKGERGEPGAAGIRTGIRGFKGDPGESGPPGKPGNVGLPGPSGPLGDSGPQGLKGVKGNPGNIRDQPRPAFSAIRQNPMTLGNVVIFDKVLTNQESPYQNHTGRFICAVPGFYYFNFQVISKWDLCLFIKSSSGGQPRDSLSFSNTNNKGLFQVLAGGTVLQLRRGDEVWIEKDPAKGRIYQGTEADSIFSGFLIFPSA
T2 sequence (P14106 26-253 limits assumed, chain 2 of 3): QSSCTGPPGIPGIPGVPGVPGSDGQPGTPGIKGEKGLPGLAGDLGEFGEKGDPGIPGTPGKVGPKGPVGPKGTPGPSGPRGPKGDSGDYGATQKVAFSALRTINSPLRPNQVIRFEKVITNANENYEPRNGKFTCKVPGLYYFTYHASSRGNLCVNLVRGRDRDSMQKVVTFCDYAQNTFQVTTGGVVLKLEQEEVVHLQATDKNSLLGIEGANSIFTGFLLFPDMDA
T2 sequence (Q02105 30-246 limits assumed, chain 3 of 3): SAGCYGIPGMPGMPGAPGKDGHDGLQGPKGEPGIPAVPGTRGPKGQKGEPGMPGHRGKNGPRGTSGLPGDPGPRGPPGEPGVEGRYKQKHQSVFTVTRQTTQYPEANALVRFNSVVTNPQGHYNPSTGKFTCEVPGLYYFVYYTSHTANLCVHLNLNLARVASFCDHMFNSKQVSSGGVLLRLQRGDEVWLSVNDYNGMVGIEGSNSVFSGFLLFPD
Method: Protein-protein binding ex vivo was performed by Duolink® PLA kit (DUO92101 SIGMA).
PLA signal was detected by Duolink® PLA kit according to manufacturer's protocol. Leica confocal microscope (SP8, Leica, Germany) equipped with a 100× oil objective (NA 1.4) were used for image. 6 fields per each sample were recorded, 3D reconstructions and the number of PLA signals per volume were performed using LAS-X software package (Leica, v1.2, Germany).
APPPS1-21 mice were treated with the liver-specific C5 siRNA AD-61679.

T1 sequence (P05067 672-713 limits assumed, change not shown): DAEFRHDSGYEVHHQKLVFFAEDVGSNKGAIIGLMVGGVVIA

B1: apolipoprotein E (mouse, in APPPS1-21 and WT mouse brain cortex sections) (other, UniProt P08226 19-311, looked up)
chain: EGEPEVTDQLEWQSNQPWEQALNRFWDYLRWVQTLSDQVQEELQSSQVTQELTALMEDTMTEVKAYKKELEEQLGPVAEETRARLGKEVQAAQARLGADMEDLRNRLGQYRNEVHTMLGQSTEEIRARLSTHLRKMRKRLMRDAEDLQKRLAVYKAGAREGAERGVSAIRERLGPLVEQGRQRTANLGAGAAQPLRDRAQAFGDRIRGRLEEVGNQARDRLEEVREHMEEVRSKMEEQTQQIRLQAEIFQARLKGWFEPIVEDMHRQWANLMEKIQASVATNPIITPVAQENQ
notes: Detected with rabbit anti-mouse ApoE (ab183597); also called ApoE
- binding result [1]: binds
- binding result [2]: binds
